Source: article PMC11294680

Biological target: human BKCa channel α-subunit (hSlo1), residues 1-1,114 (human)
Assay: cryo-EM structure; purified tetrameric channel (5.5 mg/ml, 44 μM) in 20 mM Tris-HCl pH 8.0, 450 mM KCl, 10 mM CaCl2, 10 mM MgCl2, 0.01% glyco-diosgenin, POPE/POPC/POPA, mixed with 1 mM CTIBD on ice for 30 min; C1 and C4 symmetry

- stoichiometry N: 4
Substance: human BKCa channel α-subunit (hSlo1), residues 1-1,114 (natural protein)
